{"source": "the Human Domainome abundance scans (Beltran et al. 2025)", "parents": {"B1": {"name": "Lysine-specific demethylase 5C, residues 319 to 373; numbered along this chain, P41229 (parent)", "chain": "AQFIESYVCRMCSRGDEDDKLLLCDGCDDNYHIFCLLPPLPEIPKGVWRCPKCVM"}}, "note": "± gives the uncertainty stated by the source."}
{"variants_of": "B1", "test": "abundance fitness (aPCA) (normalised: wild type 0, dead -1); higher = more abundant; growth selection in yeast, the domain comes from the species named", "conditions": "Homo sapiens"}
{"variant": "C12Y", "abundance fitness": "-0.87 ± 0.25"}
{"variant": "C12L", "abundance fitness": "-0.344 ± 0.09"}
{"variant": "C12P", "abundance fitness": "-0.52 ± 0.17"}
{"variant": "C12F", "abundance fitness": "-0.731 ± 0.15"}
{"variant": "C12K", "abundance fitness": "-0.435 ± 0.18"}
{"variant": "L23S", "abundance fitness": "0.148 ± 0.084"}
{"variant": "L23P", "abundance fitness": "-0.017 ± 0.13"}
{"variant": "L23Q", "abundance fitness": "-0.073 ± 0.14"}
{"variant": "L23G", "abundance fitness": "-0.086 ± 0.093"}
{"variant": "D16C", "abundance fitness": "-0.115 ± 0.15"}
{"variant": "D16T", "abundance fitness": "-0.182 ± 0.12"}
{"variant": "D16Y", "abundance fitness": "-0.115 ± 0.19"}
{"variant": "D16A", "abundance fitness": "-0.063 ± 0.12"}
{"variant": "E17T", "abundance fitness": "0.087 ± 0.14"}
{"variant": "E17N", "abundance fitness": "0.257 ± 0.22"}
{"variant": "E17V", "abundance fitness": "0.22 ± 0.11"}
{"variant": "E17W", "abundance fitness": "-0.176 ± 0.16"}
{"variant": "E17A", "abundance fitness": "0.123 ± 0.11"}
{"variant": "E17I", "abundance fitness": "-0.052 ± 0.21"}
{"variant": "E5W", "abundance fitness": "-0.451 ± 0.24"}
{"variant": "E5D", "abundance fitness": "0.054 ± 0.19"}
{"variant": "E5Q", "abundance fitness": "0.02 ± 0.17"}
{"variant": "E5T", "abundance fitness": "-0.078 ± 0.16"}
{"variant": "E5N", "abundance fitness": "0.275 ± 0.19"}
{"variant": "H32K", "abundance fitness": "-0.97 ± 0.23"}
{"variant": "H32V", "abundance fitness": "-0.723 ± 0.11"}
{"variant": "H32T", "abundance fitness": "-0.898 ± 0.21"}
{"variant": "H32P", "abundance fitness": "-0.853 ± 0.23"}
{"variant": "H32A", "abundance fitness": "-0.756 ± 0.17"}
{"variant": "H32Q", "abundance fitness": "-0.756 ± 0.22"}
{"variant": "H32F", "abundance fitness": "-0.697 ± 0.22"}
{"variant": "L36G", "abundance fitness": "-0.688 ± 0.17"}
{"variant": "L36I", "abundance fitness": "-0.134 ± 0.18"}
{"variant": "L36S", "abundance fitness": "-0.157 ± 0.091"}
{"variant": "L36E", "abundance fitness": "-0.551 ± 0.21"}
{"variant": "L36H", "abundance fitness": "0.006 ± 0.26"}
{"variant": "L36M", "abundance fitness": "-0.275 ± 0.17"}
{"variant": "L36C", "abundance fitness": "0.232 ± 0.13"}
{"variant": "D18F", "abundance fitness": "0.157 ± 0.14"}
{"variant": "D18Q", "abundance fitness": "0.224 ± 0.11"}
{"variant": "D18R", "abundance fitness": "0.087 ± 0.083"}
{"variant": "D18C", "abundance fitness": "-0.178 ± 0.18"}
{"variant": "Y7I", "abundance fitness": "-0.023 ± 0.18"}
{"variant": "Y7D", "abundance fitness": "0.173 ± 0.48"}
{"variant": "Y7Q", "abundance fitness": "-0.052 ± 0.18"}
{"variant": "Y7A", "abundance fitness": "0.18 ± 0.13"}
{"variant": "Y7R", "abundance fitness": "0.14 ± 0.091"}
{"variant": "Y7T", "abundance fitness": "0.199 ± 0.12"}
{"variant": "Y7P", "abundance fitness": "-0.073 ± 0.17"}
{"variant": "Y7H", "abundance fitness": "-0.09 ± 0.16"}
{"variant": "Y7M", "abundance fitness": "0.078 ± 0.2"}
{"variant": "Y7F", "abundance fitness": "-0.14 ± 0.26"}
{"variant": "Y7V", "abundance fitness": "-0.121 ± 0.12"}
{"variant": "D25I", "abundance fitness": "-0.224 ± 0.1"}
{"variant": "D25N", "abundance fitness": "-0.293 ± 0.1"}
{"variant": "D25E", "abundance fitness": "-0.246 ± 0.16"}
{"variant": "D25P", "abundance fitness": "-0.355 ± 0.1"}
{"variant": "D25S", "abundance fitness": "-0.062 ± 0.079"}
{"variant": "D25G", "abundance fitness": "-0.081 ± 0.12"}
{"variant": "D25M", "abundance fitness": "-0.419 ± 0.14"}
{"variant": "R10V", "abundance fitness": "-0.137 ± 0.16"}
{"variant": "R10L", "abundance fitness": "0.021 ± 0.21"}
{"variant": "R10M", "abundance fitness": "-0.036 ± 0.25"}
{"variant": "R10Y", "abundance fitness": "-0.175 ± 0.44"}
{"variant": "R10D", "abundance fitness": "-0.384 ± 0.33"}
{"variant": "C27Q", "abundance fitness": "-0.522 ± 0.2"}
{"variant": "C27M", "abundance fitness": "-0.507 ± 0.19"}
{"variant": "C27S", "abundance fitness": "-0.823 ± 0.14"}
{"variant": "L37G", "abundance fitness": "-0.134 ± 0.14"}
{"variant": "L37S", "abundance fitness": "-0.012 ± 0.1"}
{"variant": "L37W", "abundance fitness": "0.182 ± 0.12"}
{"variant": "L37D", "abundance fitness": "0.122 ± 0.16"}
{"variant": "L37I", "abundance fitness": "-0.043 ± 0.22"}
{"variant": "L37N", "abundance fitness": "0.172 ± 0.19"}
{"variant": "C35A", "abundance fitness": "-0.83 ± 0.15"}
{"variant": "C35G", "abundance fitness": "-0.9 ± 0.21"}
{"variant": "C35K", "abundance fitness": "-0.947 ± 0.34"}
{"variant": "C35H", "abundance fitness": "-0.235 ± 0.24"}
{"variant": "C35N", "abundance fitness": "-0.842 ± 0.43"}
{"variant": "C35I", "abundance fitness": "-1 ± 0.4"}
{"variant": "C35Q", "abundance fitness": "-1.03 ± 0.46"}
{"variant": "C35S", "abundance fitness": "-0.597 ± 0.12"}
{"variant": "L22H", "abundance fitness": "-0.612 ± 0.23"}
{"variant": "L22P", "abundance fitness": "-0.897 ± 0.2"}
{"variant": "L22E", "abundance fitness": "-0.523 ± 0.17"}
{"variant": "L22W", "abundance fitness": "-0.838 ± 0.16"}
{"variant": "L22Q", "abundance fitness": "-0.561 ± 0.23"}
{"variant": "L22F", "abundance fitness": "-0.551 ± 0.24"}
{"variant": "L22R", "abundance fitness": "-0.169 ± 0.078"}
{"variant": "G46M", "abundance fitness": "-0.235 ± 0.18"}
{"variant": "G46H", "abundance fitness": "0.132 ± 0.23"}
{"variant": "G46Q", "abundance fitness": "-0.093 ± 0.29"}
{"variant": "G46I", "abundance fitness": "-0.538 ± 0.21"}
{"variant": "G46W", "abundance fitness": "-0.464 ± 0.24"}
{"variant": "G46D", "abundance fitness": "0.043 ± 0.21"}
{"variant": "G46L", "abundance fitness": "-0.191 ± 0.11"}
{"variant": "G46S", "abundance fitness": "-0.204 ± 0.13"}
{"variant": "G46K", "abundance fitness": "-0.383 ± 0.21"}
{"variant": "G46E", "abundance fitness": "0.364 ± 0.26"}
{"variant": "I4N", "abundance fitness": "-0.35 ± 0.18"}
{"variant": "I4K", "abundance fitness": "-0.033 ± 0.18"}
{"variant": "I4G", "abundance fitness": "-0.302 ± 0.2"}
{"variant": "I4A", "abundance fitness": "-0.188 ± 0.13"}
{"variant": "I4M", "abundance fitness": "0.115 ± 0.14"}
{"variant": "I4W", "abundance fitness": "-0.287 ± 0.18"}
{"variant": "I4Y", "abundance fitness": "-0.687 ± 0.24"}
{"variant": "C24Y", "abundance fitness": "-0.812 ± 0.27"}
{"variant": "A1S", "abundance fitness": "-0.244 ± 0.19"}
{"variant": "A1T", "abundance fitness": "-0.704 ± 0.3"}
{"variant": "D19T", "abundance fitness": "0.242 ± 0.097"}
{"variant": "D19M", "abundance fitness": "-0.254 ± 0.1"}
{"variant": "D19S", "abundance fitness": "-0.089 ± 0.072"}
{"variant": "D19V", "abundance fitness": "-0.102 ± 0.086"}
{"variant": "D19I", "abundance fitness": "-0.198 ± 0.16"}
{"variant": "D28E", "abundance fitness": "-0.102 ± 0.32"}
{"variant": "D28K", "abundance fitness": "-0.516 ± 0.41"}
{"variant": "D28N", "abundance fitness": "0.046 ± 0.19"}
{"variant": "D28M", "abundance fitness": "-0.411 ± 0.32"}
{"variant": "D28W", "abundance fitness": "-0.244 ± 0.21"}
{"variant": "D28C", "abundance fitness": "-0.359 ± 0.32"}
{"variant": "R14S", "abundance fitness": "0.188 ± 0.16"}
{"variant": "K45R", "abundance fitness": "-0.067 ± 0.12"}
{"variant": "K45I", "abundance fitness": "-0.25 ± 0.23"}
{"variant": "K45S", "abundance fitness": "-0.266 ± 0.12"}
{"variant": "K45H", "abundance fitness": "-0.048 ± 0.17"}
{"variant": "K45D", "abundance fitness": "0.237 ± 0.2"}
{"variant": "S13K", "abundance fitness": "-0.196 ± 0.26"}
{"variant": "S13Q", "abundance fitness": "-0.183 ± 0.16"}
{"variant": "S13Y", "abundance fitness": "-0.149 ± 0.15"}
{"variant": "S13W", "abundance fitness": "-0.237 ± 0.17"}
{"variant": "S13N", "abundance fitness": "-0.212 ± 0.17"}
{"variant": "S13F", "abundance fitness": "-0.2 ± 0.15"}
{"variant": "C50N", "abundance fitness": "-0.927 ± 0.48"}
{"variant": "C50F", "abundance fitness": "-0.421 ± 0.23"}
{"variant": "C50D", "abundance fitness": "-0.841 ± 0.25"}
{"variant": "C50V", "abundance fitness": "-1.05 ± 0.19"}
{"variant": "C50E", "abundance fitness": "-0.992 ± 0.24"}
{"variant": "C50I", "abundance fitness": "-0.757 ± 0.35"}
{"variant": "M55A", "abundance fitness": "-0.035 ± 0.41"}
{"variant": "M55I", "abundance fitness": "-0.346 ± 0.44"}
{"variant": "M55G", "abundance fitness": "-0.61 ± 0.24"}
{"variant": "M55S", "abundance fitness": "0.295 ± 0.24"}
{"variant": "I33R", "abundance fitness": "-0.381 ± 0.49"}
{"variant": "V54S", "abundance fitness": "-0.261 ± 0.14"}
{"variant": "V54E", "abundance fitness": "-0.367 ± 0.22"}
{"variant": "V54L", "abundance fitness": "-0.196 ± 0.15"}
{"variant": "R49L", "abundance fitness": "-0.164 ± 0.12"}
{"variant": "R49M", "abundance fitness": "-0.092 ± 0.19"}
{"variant": "R49W", "abundance fitness": "-0.085 ± 0.31"}
{"variant": "R49A", "abundance fitness": "-0.262 ± 0.16"}
{"variant": "R49S", "abundance fitness": "-0.324 ± 0.13"}
{"variant": "R49G", "abundance fitness": "-0.4 ± 0.2"}
{"variant": "R49C", "abundance fitness": "-0.468 ± 0.22"}
{"variant": "R49E", "abundance fitness": "-0.178 ± 0.17"}
{"variant": "R49Q", "abundance fitness": "0.106 ± 0.19"}
{"variant": "V47E", "abundance fitness": "-0.142 ± 0.14"}
{"variant": "V47R", "abundance fitness": "0.044 ± 0.087"}
{"variant": "V47N", "abundance fitness": "-0.052 ± 0.19"}
{"variant": "V47G", "abundance fitness": "-0.061 ± 0.091"}
{"variant": "V47A", "abundance fitness": "-0.241 ± 0.13"}
{"variant": "E42S", "abundance fitness": "-0.273 ± 0.094"}
{"variant": "E42H", "abundance fitness": "-0.44 ± 0.19"}
{"variant": "E42W", "abundance fitness": "-0.333 ± 0.14"}
{"variant": "E42M", "abundance fitness": "-0.37 ± 0.19"}
{"variant": "E42F", "abundance fitness": "-0.231 ± 0.17"}
{"variant": "E42I", "abundance fitness": "0.009 ± 0.27"}
{"variant": "E42Q", "abundance fitness": "0.033 ± 0.27"}
